Results on 35 sequences are retold here after the supplement of paper PMC7877785.

± gives the uncertainty stated by the source.

A short description of the series: self-splicing fitness, log relative to wild type (ln ratio); higher = more splicing; Tetrahymena group I intron in knt gene, E. coli kanamycin selection, DiMSum; sequences stand for … in CUCUCU…GGAGGGAAAAGUUAUCAGGCAUGCACCUGGUAGCUAGUCUUUAAACCAAUAGAUUGCAUCGGUUUAAAAGGCAAGACCGUCAAAUUGCGGGAAAGGGGUCAACAGCCGUUCAGUACCAAGUCUCAGGGGAAACUUUGAGAUGGCCUUGCAAAGGGUAUGGUAAUAAGCUGACGGACAUGGUCCUAACCACGCAGCCAAGUCCUAAGUCAACAGAUCUUCUGUUGAUAUGGAUGCAGUUCACAGACUAAAUGUCGGUCGGGGAAGAUGUAUUCUUCUCAUAAGAUAUAGUCGGACCUCUCCUUAAUGGGAGCUAGCGGAUGAAGUGAUGCAACACUGGAGCCGCUGGGAACUAAUUUGUAUGCGAAAGUAUAUUGAUUAGUUUUGGAGUACUCGUGGUCG
Summed up:
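Library with all eight P1ex-region intron nucleotides randomised, intron inside the knt kanamycin-resistance gene on pET-22b(+), in E. coli BL21(DE3). Cells grew overnight at 37°C or 30°C on LB agar with or without 25 μg/mL kanamycin (plus 100 μg/mL carbenicillin, 50 μM IPTG, 0.2% rhamnose), in six replicate transformations. Pooled colonies were amplicon-sequenced on Illumina HiSeq 2500. DiMSum fitness is the error-weighted combination of wild-type-normalised replicate fold changes, kanamycin versus none.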

Consider UACAAGCAAUAUUACGCAUG, for which the “self-splicing fitness (ln)” value (30 °C) was -2.07 ± 0.088 and the “self-splicing fitness (ln)” value (37 °C) is -0.74 ± 0.086. On to UGUAAGCAAUAUUACGUAGA, for which the “self-splicing fitness (ln)” value is -0.696 ± 0.12 (30 °C) and -0.209 ± 0.16 (37 °C). Turning to AUGAAGCAAUAUUACGUAAG, the “self-splicing fitness (ln)” value is, setting by setting: (30 °C) -1.05 ± 0.057; (37 °C) -0.409 ± 0.083. In the case of CUCCAGCAAUAUUACGAGCU, the “self-splicing fitness (ln)” value reads like this: (30 °C) -4.01 ± 0.28; (37 °C) -2.44 ± 0.23.

On to UCAUAGCAAUAUUACGCCGU, for which the “self-splicing fitness (ln)” value is -3.49 ± 0.34 (30 °C) and -1.85 ± 0.39 (37 °C). On to UCCCAGCAAUAUUACGGGAA, for which the “self-splicing fitness (ln)” value is, setting by setting: (30 °C) -3.21 ± 0.2; (37 °C) -1.83 ± 0.14. Take UAUGAGCAAUAUUACGUCCG: the “self-splicing fitness (ln)” value (37 °C) is -2.19 ± 0.43. Consider AGGAAGCAAUAUUACGGCUG, for which the “self-splicing fitness (ln)” value is -0.459 ± 0.13 (30 °C) and -0.0568 ± 0.15 (37 °C).

UUUGAGCAAUAUUACGGGUC: under “37 °C”, the “self-splicing fitness (ln)” value is -3.77 ± 0.46. Turning to ACUGAGCAAUAUUACGUUCU, the “self-splicing fitness (ln)” value was -1.77 ± 0.14 (30 °C) and -1.48 ± 0.12 (37 °C). For CGUUAGCAAUAUUACGUCCU the same measures were -1.24 ± 0.1 and -0.9 ± 0.15. Regarding CGUAAGCAAUAUUACGGGGA, the “self-splicing fitness (ln)” value is, setting by setting: (30 °C) -3.42 ± 0.22; (37 °C) -1.73 ± 0.14. On to CCCUAGCAAUAUUACGGCUC, for which the “self-splicing fitness (ln)” value was -4.27 ± 0.23 (30 °C) and -1.75 ± 0.14 (37 °C). AGUAAGCAAUAUUACGUCCA: the “self-splicing fitness (ln)” value reads like this: (30 °C) -0.878 ± 0.12; (37 °C) -0.0078 ± 0.13. The like results for AAUCAGCAAUAUUACGGGAG were, in that order, -1.48 ± 0.054 and -0.88 ± 0.068. As for GUCAAGCAAUAUUACGGCUG, the “self-splicing fitness (ln)” value (30 °C) was -4 ± 0.3. For the sequence AAACAGCAAUAUUACGAAGU, the “self-splicing fitness (ln)” value runs as follows: (30 °C) -3.41 ± 0.2; (37 °C) -2.21 ± 0.17.

With ACAAAGCAAUAUUACGCCGA, the “self-splicing fitness (ln)” value (30 °C) was -2.13 ± 0.15 and the “self-splicing fitness (ln)” value (37 °C) is -0.465 ± 0.13. As for UGGGAGCAAUAUUACGUGCG, the “self-splicing fitness (ln)” value (30 °C) is -1.56 ± 0.11 and the “self-splicing fitness (ln)” value (37 °C) was -0.551 ± 0.14. As for CUUUAGCAAUAUUACGUCAA, the “self-splicing fitness (ln)” value is, setting by setting: (30 °C) -2.48 ± 0.35; (37 °C) -2.67 ± 0.38.

GAGAAGCAAUAUUACGACUC: the “self-splicing fitness (ln)” value is -2.38 ± 0.18 (30 °C) and -1.82 ± 0.23 (37 °C). On to AGAAAGCAAUAUUACGCGCC, for which the “self-splicing fitness (ln)” value is, setting by setting: (30 °C) -0.784 ± 0.11; (37 °C) 0.139 ± 0.14. With CGUGAGCAAUAUUACGUCCU, the “self-splicing fitness (ln)” value (37 °C) was -1.64 ± 0.32. GCAAAGCAAUAUUACGGUUA: the “self-splicing fitness (ln)” value was -0.938 ± 0.08 (30 °C) and -0.429 ± 0.076 (37 °C).

Consider UGGGAGCAAUAUUACGCCGA, for which the “self-splicing fitness (ln)” value runs as follows: (30 °C) -0.637 ± 0.4; (37 °C) -0.137 ± 0.24. As to GCGAAGCAAUAUUACGGUAG, the “self-splicing fitness (ln)” value is -4.07 ± 0.42 (30 °C) and -2.77 ± 0.26 (37 °C). For UGUAAGCAAUAUUACGAGCC, the “self-splicing fitness (ln)” value runs as follows: (30 °C) -1.57 ± 0.35; (37 °C) -0.838 ± 0.43.

Regarding GGUCAGCAAUAUUACGCGCU, the “self-splicing fitness (ln)” value (37 °C) is -2.13 ± 0.15.

In the case of ACAGAGCAAUAUUACGGGGG, the “self-splicing fitness (ln)” value by setting is: (30 °C) -3.7 ± 0.19; (37 °C) -2.31 ± 0.2. In the case of UCCGAGCAAUAUUACGCAUA, the “self-splicing fitness (ln)” value runs as follows: (30 °C) -2.24 ± 0.42; (37 °C) -2.26 ± 0.35. Regarding AAACAGCAAUAUUACGAUAU, the “self-splicing fitness (ln)” value reads like this: (30 °C) -1.82 ± 0.08; (37 °C) -0.63 ± 0.097.

UAGAAGCAAUAUUACGUUAG: the “self-splicing fitness (ln)” value reads like this: (30 °C) -2.51 ± 0.1; (37 °C) -0.338 ± 0.093. Take GAACAGCAAUAUUACGGCCG: the “self-splicing fitness (ln)” value (30 °C) was -2.39 ± 0.11 and the “self-splicing fitness (ln)” value (37 °C) was -0.46 ± 0.14. As for ACGCAGCAAUAUUACGACGA, the “self-splicing fitness (ln)” value is -0.25 ± 0.1 (30 °C) and 0.113 ± 0.12 (37 °C). Regarding UAAGAGCAAUAUUACGGUCU, the “self-splicing fitness (ln)” value is -3.26 ± 0.4 (30 °C) and -2.04 ± 0.24 (37 °C).
